Assay results taken from publication doi:10.1101/677344.

Legend:
[1] = target: AausFP1 (Aequorea cf. australis); test: crystal structure
[2] = target: AausFP2 (Aequorea cf. australis); test: crystal structure

stoichiometry N [1]	stoichiometry N [2]	Substance
2	–	AausFP1 (natural protein)
–	2	AausFP2 (natural protein)
